Data set [1] deals with T1, tPA (Homo sapiens, UniProt P00750). Put plainly: Plasminogen-activation assay (tPA activation, S-2251). Format: biochemical. As for the experimental part: Plasmin (Pls) activity was assayed as described^16. Peptides and proteins that were tested for their stimulatory ability were regularly used at 100 μg ml^−1. […] Chromogenic substrate S-2251 (Chromogenix, Instrumentation Laboratory SpA, Milano, Italy) was used to measure Pls activity. Conversion of zymogen factor XII (#233490, Calbiochem, EMD Biosciences, Inc., San Diego, Calif.) to proteolytically active factor XII (factor XIIa) was assayed by measurement of the conversion of chromogenic substrate Chromozym-PK (Roche Diagnostics, Almere, The Netherlands) by kallikrein. Chromozym-PK was used at a concentration of 0.3 mM. Factor XII, human plasma prekallikrein (#529583, Calbiochem) and human plasma cofactor high-molecular weight kininogen (#422686, Calbiochem) were used at concentrations of 1 μg ml^−1. […] Assays were performed using microtiter plates (Costar, Cambridge, Mass., USA). Peptides and proteins were tested for their ability to activate factor XII. 150 μg ml^−1 kaolin, an established activator of factor XII was used as positive control and solvent (H2O) as negative control. The conversion of Chromozym-PK was recorded kinetically at 37° C. for at least 60 minutes. Assays were done in duplicate.
(§1) Formulated protein therapeutics were obtained from the local hospital pharmacy and were used as supplied by the manufacturers. […] Lyophilized therapeutics were dissolved according to the manufacturers recommendations. GH, zinc-insulin, Cealb and gelatin were stored at −20, 4, room temperature, 37 and 65° C. Other protein therapeutics were only kept at 4° C., and assayed for the presence of cross-β structure at shown time points. Enhancement in fluorescence of ThT and Congo red was measured with all formulated protein therapeutics. For this purpose, proteins were diluted to the indicated concentrations. […] Zinc-insulin was diluted tenfold in the activation assay, GH was diluted to a final concentration of 500 μg ml^−1. Activation of factor XII and prekallikrein by the therapeutics was tested in the chromogenic factor XII assay (see above). […] After coating, plates were blocked with Blocking Reagent (Roche Diagnostics, Almere, The Netherlands).
To prepare structurally altered ovalbumin (OVA) with amyloid cross-β structures, purified OVA (Sigma, A-7641, lot 071k7094) was heated to 85° C. One mg ml^−1 OVA in 67 mM NaPi buffer pH 7.0, 100 mM NaCl, was heated for two cycles in PCR cups in a PTC-200 thermal cycler (MJ Research, Inc., Waltham, Mass., USA). In each cycle, OVA was heated from 30 to 85° C. at a rate of 5° C./min. Native OVA (nOVA) and heat-denatured OVA (dOVA) were tested in the ThT fluorescence assay and in the Plg-activation assay. In the fluorescence assay and in the Plg-activation assay, 25 and 100 μg ml^−1 nOVA and dOVA were tested, respectively. TEM images of nOVA and dOVA were taken to check for the presence of large aggregates.
MSA (#126674, Calbiochem) was dissolved in 8 M urea, 100 mM Tris-HCl pH 8.2, at 10 mg ml^−1 final concentration. Dithiothreitol (DTT) was added to a final concentration of 10 mM. Air was replaced by N2 and the solution was incubated for 2 h at room temperature. Then, the solution was transferred to ice and iodoacetamide was added from a 1 M stock to a final concentration of 20 mM. […] Alkyl-MSA was dialyzed against H2O before use. […] In the ThT-fluorescence assay 25 μg ml^−1 nMSA and alkyl-MSA were tested, and in the Plg-activation assay 100 μg ml^−1 was tested. The presence of aggregates or fibrils was analyzed using TEM.
Lyophilized sterile glucagon was dissolved at 1 mg ml^−1 in H2O with 10 mM HCl. The solution was subsequently kept at 37° C. for 24 h, at 4° C. for 14 days and again at 37° C. for 9 days. […] TEM analysis was performed to assess the presence of large multimeric structures.

The target in data set [2] is T1, tPA. Put plainly: tPA ELISA with coated protein therapeutics. Format: binding. The conditions noted are these: for binding of tPA: ELISA, stored at the recommended temperature of 4° C. On the procedure: as §1
Data set [3] in a line: Congo red fluorescence enhancement by biopharmaceuticals. Format: physicochemical. The note with it: +/− SD; five μL of protein therapeutic. On the procedure:
Background signals from buffer, buffer with Congo red and protein/peptide solution without Congo red were subtracted from corresponding measurements with protein solution incubated with Congo red. Fluorescence was measured in triplicate on a Hitachi F-4500 fluorescence spectrophotometer (Ltd., Tokyo, Japan).
(§2) Protein therapeutics were obtained from the local hospital pharmacy and analyzed within the expiry limits as stated by the manufacturers.
Fluorescence of Thioflavin T (ThT; Sigma T-3516, St. Louis, Mo., USA) and Congo red (CR; Aldrich Chemical Company Inc., Milwaukee, Wis., USA) was measured on a Hitachi F-4500 spectrophotometer at an excitation wavelength of 435 nm and emission wavelength of 485 nm for ThT and an excitation wavelength of 550 nm and emission wavelength of 595 nm for Congo red. […] Fluorescence was measured in triplicate. Background fluorescence of both protein in buffer and dye-solution were subtracted from the total fluorescence signal. Five μg/mL fibrillar amyloid-β(1-40) E22Q (Peptide Synthesis Facility of the Dutch Cancer Institute NKI, Amsterdam, The Netherlands) was used as a positive control in all fluorescence assays.

The target of data set [4] is T1, tPA. Put plainly: tPA/plasminogen activation assay. The conditions noted are these: % of standardized positive control; 1:10 diluted samples. The format is biochemical. As for the experimental part: β2-GPI was reduced and alkylated as follows. Sixhundredforty μl of β2-GPI stock was mixed with 640 μl of 8 M Urea (cooled solution) in 0.1 M Tris pH-8.2. The solution was degassed with N2 gas for approximately 6 minutes. From a 1 M DTT stock 12.8 μl was added to the solution, mixed and incubated for 3 hours at room temperature. A 1 M Iodoacetamide (Sigma; I-6125) was prepared, of which 25.6 μl was added to the β2-GPI reaction mixture. The solution was subsequently dialysed against PBS. […] Signals obtained with alkyl-β2gpi are compared with those obtained with native β2gpi starting material and with positive control acid/heat denatured amyloid-like misfolded γ-globulins.
Exiqon Peptide Immobilizer plates were blocked for 1 hour with PBS, 1% Tween20 and rinsed twice with distilled water. The conversion of the chromogenic substrate S-2251 (Chromogenix, Italy) by plasmin was kinetically measured at 37° C. on a Spectramax340 microplate reader at a wavelength of 405 nm. […] Denatured γ-globulins (100 μg/ml) with amyloid-like structure was used as reference and positive control. Lyophilized γ-globulins (Sigma, Mo., USA) were dissolved in a 1(:)1 volume ratio of 1,1,1,3,3,3-hexafluoro-2-propanol and trifluoro-acetic acid and subsequently dried under air. Dried γ-globulins was dissolved in H2O to a final concentration of 1 mg/ml and kept at room temperature for at least three days and subsequently stored at −20° C.
as §2

T1 sequence (P00750 36-562): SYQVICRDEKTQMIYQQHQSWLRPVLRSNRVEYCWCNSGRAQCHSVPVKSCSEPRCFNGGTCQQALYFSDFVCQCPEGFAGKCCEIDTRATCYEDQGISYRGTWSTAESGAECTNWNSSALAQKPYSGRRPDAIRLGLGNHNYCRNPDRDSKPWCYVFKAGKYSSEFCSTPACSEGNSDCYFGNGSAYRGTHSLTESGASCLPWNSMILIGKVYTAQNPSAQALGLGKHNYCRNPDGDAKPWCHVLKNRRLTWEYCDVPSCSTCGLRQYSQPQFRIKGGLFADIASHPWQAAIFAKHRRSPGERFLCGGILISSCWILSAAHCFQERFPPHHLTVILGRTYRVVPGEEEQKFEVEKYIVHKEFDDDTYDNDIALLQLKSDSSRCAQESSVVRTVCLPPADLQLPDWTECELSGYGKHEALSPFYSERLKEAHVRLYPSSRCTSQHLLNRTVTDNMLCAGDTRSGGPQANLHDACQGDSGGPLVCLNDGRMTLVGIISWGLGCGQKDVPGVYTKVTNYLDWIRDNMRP

For “Abciximab: abciximab, an inhibitor of blood platelet aggregation (ReoPro, Centocor)”, in the data set with tPA [1] (after storage at 65° C.), the “Pls activity (tPA activating properties)” value was “induced Pls activity”. The “binding of tPA” value with tPA [2] is given as “binding of tPA was established”. Moreover, in data set [3], the “Fluorescence CR” value is on record as 25 +/− 1 a.u. Also, in the data set with tPA [4], the “tPA activation Max. Activation” value came out at 0%.
As to “Somatropin: human growth hormone (Genotropin, Pharmacia)”, the tPA activation entry with tPA [1] (protein solutions stored at 4° C.) is “induced tPA activation”. Also, the “binding of tPA” value with tPA [2] was “binding of tPA was established”. Besides, in the data set with tPA [2] (tPA ELISA, immobilized protein, stored at 4° C., read-out: KD of tPA binding), the Kd amounted to 72 nM. The “Fluorescence CR” value in data set [3] was 429 +/− 2 a.u. Also, the “tPA activation Max. Activation” value with tPA [4] is reported as 113.95%.

The Kd is the free concentration of one partner at which half of the binding sites on the other are occupied at equilibrium, for simple one-to-one binding.

The values above are taken from patent US20080220446A1, “Method for Detecting and/or Removing Protein and/or Peptide Comprising a Cross-Beta Structure From an Aqueous Solution Comprising a Protein” (priority 2005, published 2008).
